Source: the RNAGym collection of RNA variant scans (doi:10.1021/acssynbio.7b00057)

B1: Pistol ribozyme (parent)
chain: GGGUCGUUGUUCCAUAAUCGCGUGGAUAUGGCACGCAAGUUUCUACCGGGCACCGUAAAUGUCCGACUGGAGCCGUUCGGGCGGCUAUAAACAGACCUCAGGCCCGAAGCGUGGCGGCACCUGCCGCCGGUGGUAAAAAAGAUCGGAAGAGCACACGUCU

Variants of: B1
Assay: aptazyme ON/OFF ratio, guanine; higher = stronger switching; co-transcriptional cleavage with and without guanine

Variant	aptazyme ON/OFF ratio
U7C U8C G9U U10A U11C C13U	1.1
U7C U8C G9U U10A U11C C13G	1.07
U7C U8C G9U U10A U11C C13A	1.15
U7C U8C G9C U11C C12U C13U	1.11
U7C U8C G9C U11C C12U C13A	1.05
U7C U8C G9C U11C C12U C13G	1.08
U7C U8C G9U U10A U11G C13U	1.31
U7C U8C G9U U10A U11G C13A	1.12
U7C U8C G9U U10A U11G C13G	1.11
U7C U8C G9U U10C U11G C12G	1.16
U7C U8C G9U U10C U11G C12A	1.16
U7C U8C G9U U10C U11G C12U	1.22
U7C U8C G9U U10A C12A	1.22
U7C U8C G9U U10A C12G	1.22
U7C U8C G9U U10A C12U	1.17
U7C U8C G9U U10A C12A C13A	1.2
U7C U8C G9U U10A C12A C13G	1.07
U7C U8C G9U U10A C12A C13U	1.2
U7C U8C G9U U10A C13A	1.14
U7C U8C G9U U10A C13U	1.27
U7C U8C G9U U10A C13G	1.09
U7C U8C G9U U10C U11A	2.44
U7C U8C G9U U10C U11G	1.32
U7C U8C G9U U10C U11C	1.3

Variant	aptazyme ON/OFF ratio
U7C U8C G9U U10C U11A C12U C13U	1.09
U7C U8C G9U U10C U11A C12U C13G	1.14
U7C U8C G9U U10C U11A C12U C13A	1.13
U7C U8C G9U U10C U11G C12G C13U	1.08
U7C U8C G9U U10C U11G C12G C13G	1.09
U7C U8C G9U U10C U11G C12G C13A	1.14
U7C U8C G9C U11G C13G	1.12
U7C U8C G9C U11G C13U	1.1
U7C U8C G9C U11G C13A	1.12
U7C U8C G9U U10C C13G	1.08
U7C U8C G9U U10C C13U	3.5
U7C U8C G9U U10C C13A	1.2
U7C U8C G9U U10A U11C C12G C13A	1.17
U7C U8C G9U U10A U11C C12G C13U	1.15
U7C U8C G9U U10A U11C C12G C13G	1.19
U7C U8C G9C U10G U11C C12A C13G	1.17
U7C U8C G9C U10G U11C C12A C13U	1.09
U7C U8C G9C U10G U11C C12A C13A	1.13
U7C U8C G9U U10G C12A C13A	1.06
U7C U8C G9U U10G C12A C13G	1.1
U7C U8C G9U U10G C12A C13U	1.1
U7C U8C G9U U10G U11A	1.32
U7C U8C G9U C12U C13G	1.02
U7C U8C G9U C12U C13A	1.06

Variant	aptazyme ON/OFF ratio
U7C U8C G9U C12U C13U	1.3
U7C U8C G9U U10A U11A C12A C13U	1.1
U7C U8C G9U U10A U11A C12A C13A	1.12
U7C U8C G9U U10A U11A C12A C13G	1.11
U7C U8C G9C U10G U11C C12G C13A	1.14
U7C U8C G9C U10G U11C C12G C13U	1.11
U7C U8C G9C U10G U11C C12G C13G	1.1
U7C U8C G9C U10G U11G C13A	1.06
U7C U8C G9C U10G U11G C13G	1.08
U7C U8C G9C U10G U11G C13U	1.1
U7C U8C G9C U10C U11C C13G	1.12
U7C U8C G9C U10C U11C C13U	0.989
U7C U8C G9C U10C U11C C13A	1.06
U7C U8C G9C U10C U11G C12A C13G	1.04
U7C U8C G9C U10C U11G C12A C13A	1.08
U7C U8C G9C U10C U11G C12A C13U	1.09
U7C U8C G9U U10A U11G C12U C13G	1.13
U7C U8C G9U U10A U11G C12U C13A	1.06
U7C U8C G9U U10A U11G C12U C13U	1.14
U7C U8C G9U U10A U11C	1.16
U7C U8C G9U U10A U11G	1.34
U7C U8C G9U U10A U11A	2.27
U7C U8C G9U U10A U11G C12A C13A	1.19
U7C U8C G9U U10A U11G C12A C13U	1.12

Variant	aptazyme ON/OFF ratio
U7C U8C G9U U10A U11G C12A C13G	1.05
U7C U8C G9U U10A	1.13
U7C U8C G9U U10G	1.42
U7C U8C G9U U10C	2.52
U7C U8C G9C U10G U11A C12G C13U	1.08
U7C U8C G9C U10G U11A C12G C13G	1.11
U7C U8C G9C U10G U11A C12G C13A	1.05
U7C U8C G9U U10C U11C C12U C13U	1.08
U7C U8C G9U U10C U11C C12U C13G	1.1
U7C U8C G9U U10C U11C C12U C13A	1.08
U7C U8C G9C U10G C12U C13G	1.09
U7C U8C G9C U10G C12U C13A	1.08
U7C U8C G9C U10G C12U C13U	1.08
U7C U8C G9U U10C U11A C12G C13A	1.13
U7C U8C G9U U10C U11A C12G C13U	1.09
U7C U8C G9U U10C U11A C12G C13G	1.15
U7C U8C G9U C12A C13A	1.05
U7C U8C G9U C12A C13G	1.1
U7C U8C G9U C12A C13U	1.22
U7C U8C G9U U10C U11A C13A	1.2
U7C U8C G9U U10C U11A C13U	1.23
U7C U8C G9U U10C U11A C13G	1.14
U7C U8C G9C U10G C12A C13A	1.1
U7C U8C G9C U10G C12A C13U	1.1

Variant	aptazyme ON/OFF ratio
U7C U8C G9C U10G C12A C13G	1.06
U7C U8C G9C U10C U11C C12U C13U	1.03
U7C U8C G9C U10C U11C C12U C13A	1.08
U7C U8C G9C U10C U11C C12U C13G	1.08
U7C U8C G9C U10G U11A C12A C13G	1.11
U7C U8C G9C U10G U11A C12A C13U	1.11
U7C U8C G9C U10G U11A C12A C13A	1.16
U7C U8C G9U U10G C12G	1.15
U7C U8C G9U U10G C12U	1.33
U7C U8C G9U U10G C12A	1.22
U7C U8C G9C U10C U11C C12A C13A	0.986
U7C U8C G9C U10C U11C C12A C13G	1.09
U7C U8C G9C U10C U11C C12A C13U	1.02
U7C U8C G9C U11A C12G C13A	1.07
U7C U8C G9C U11A C12G C13G	1.07
U7C U8C G9C U11A C12G C13U	1.03
U7C U8C G9U U10C C12G C13G	1.11
U7C U8C G9U U10C C12G C13U	1.13
U7C U8C G9U U10C C12G C13A	1.11
U7C U8C G9U U10C U11C C12G C13A	1.05
U7C U8C G9U U10C U11C C12G C13G	1.18
U7C U8C G9U U10C U11C C12G C13U	1.05
U7C U8C G9C U10C U11A C13A	1.14
U7C U8C G9C U10C U11A C13U	1.05

Variant	aptazyme ON/OFF ratio
U7C U8C G9C U10C U11A C13G	1.13
U7C U8C G9C U10G U11A C13U	1.09
U7C U8C G9C U10G U11A C13A	1.14
U7C U8C G9C U10G U11A C13G	1.08
U7C U8C G9C U10G U11C C13A	1.22
U7C U8C G9C U10G U11C C13G	1.08
U7C U8C G9C U10G U11C C13U	1.08
U7C U8C G9U U10C U11G C12U C13A	1.09
U7C U8C G9U U10C U11G C12U C13U	1.21
U7C U8C G9U U10C U11G C12U C13G	1.19
U7C U8C G9C U10C U11G C12U	1.15
U7C U8C G9C U10C U11G C12A	1.18
U7C U8C G9C U10C U11G C12G	1.13
U7C U8C G9C U11A C13G	1.09
U7C U8C G9C U11A C13A	1.13
U7C U8C G9C U11A C13U	1.08
U7C U8C G9U U10G C12G C13A	1.09
U7C U8C G9U U10G C12G C13U	1.09
U7C U8C G9U U10G C12G C13G	1.07
U7C U8C G9U U10A U11A C13A	1.13
U7C U8C G9U U10A U11A C13G	1.14
U7C U8C G9U U10A U11A C13U	1.22
U7C U8C G9C U10C C12U C13U	1.09
U7C U8C G9C U10C C12U C13A	1.1

Variant	aptazyme ON/OFF ratio
U7C U8C G9C U10C C12U C13G	1.14
U7C U8C G9U U10C C12U	1.32
U7C U8C G9U U10C C12A	1.29
U7C U8C G9U U10C C12G	1.22
U7C U8C G9C U10G U11A C12U C13G	1.07
U7C U8C G9C U10G U11A C12U C13A	1.07
U7C U8C G9C U10G U11A C12U C13U	1.09
U7C U8C G9C U10C U11G C13A	1.33
U7C U8C G9C U10C U11G C13U	1.21
U7C U8C G9C U10C U11G C13G	1.19
U7C U8C G9U U10C U11C C12A	1.22
U7C U8C G9U U10C U11C C12U	1.23
U7C U8C G9U U10C U11C C12G	1.06
U7C U8C G9C U10C C12A C13U	1.1
U7C U8C G9C U10C C12A C13G	1.07
U7C U8C G9U U10A C12G C13U	1.08
U7C U8C G9U U10A C12G C13G	1.12
U7C U8C G9U U10A C12G C13A	1.16
U7C U8C G9U U10A U11C C12U C13G	1.14
U7C U8C G9U U10A U11C C12U C13A	1.16
U7C U8C G9U U10A U11C C12U C13U	1.15
U7C U8C G9C U10C C12G C13A	1.16
U7C U8C G9C U10C C12G C13G	1.04
